For this test, the target named is T1, β2-microglobulin (UniProt P61769 21-119).
T1 construct: also called beta2-microglobulin
Nature of the test: ELISA. (ELISA stands for enzyme-linked immunosorbent assay.)

T1 sequence (P61769 21-119 limits assumed): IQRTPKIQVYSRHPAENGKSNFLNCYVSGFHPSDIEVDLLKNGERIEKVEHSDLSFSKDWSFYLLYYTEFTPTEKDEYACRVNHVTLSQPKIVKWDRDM

B1: A2-DKK1 mAb (C2) (antibody, V domains shown)
VH: DVQLVESGGGLVQPGGSRKLSCAASGFTFSSFGMHWVRQAPEKGLEWVAYISSGSSTIYYADTVKGRFTISRDNPKNTLFLQMTSLRSEDTAMYYCARPYYYGSTYDAMDYWGQGTSVTVSS
VL: DIVMTQSHKLMSTSVGDRVTITCKASQDVGSTVAWYQQKPGQSPKLLIYWTSTRHTGVPDRFTGSGSGTDFTLTISNVQSVDLAVYFCQKFGSYPLTFGGGTKLEIK
notes: Murine monoclonal antibody from a Balb/c x SP2/0 hybridoma; also called C2 mAb; antibody C2
Consider B1, for which the binding result was “no binding”.

The values are drawn from US20220089707A1 (University of Texas, published 2022).
